Results reported in paper PMC5452030.
Like-named read-outs stand apart in the source and are kept apart here.

How the values were obtained:
Test in all cases: SPR
[1] = molecular target: human ApoER2 ECD-BAS H96A/H99A (LA2 mutant) (human)
[2] = molecular target: human ApoER2 ECD-BAS D68N (LA1 mutant) (human)
[3] = molecular target: human ApoER2 ECD-BAS H96K/H99K (LA2 mutant) (human)
[4] = molecular target: human ApoER2 ECD-BAS E107Q (LA2 mutant) (human)
[5] = molecular target: human ApoER2 ECD-BAS H96K/H99K (LA2 mutant) (human); remark: listed apart in the source

B1: mouse reelin R56 fragment (fifth and sixth reelin repeats), wild type, for SPR (domain or fragment)
chain: DGNNLNNPVLLLDTFDFGPREDNWFFYPGGNIGLYCPYSSKGAPEEDSAMVFVSNEVGEHSITTRDLSVNENTIIQFEINVGCSTDSSSADPVRLEFSRDFGATWHLLLPLCYHSSSLVSSLCSTEHHPSSTYYAGTTQGWRREVVHFGKLHLCGSVRFRWYQGFYPAGSQPVTWAIDNVYIGPQCEEMCYGHGSCINGTKCICDPGYSGPTCKISTKNPDFLKDDFEGQLESDRFLLMSGGKPSRKCGILSSGNNLFFNEDGLRMLVTRDLDLSHARFVQFFMRLGCGKGVPDPRSQPVLLQYSLNGGLSWSLLQEFLFSNSSNVGRYIALEMPLKARSGSTRLRWWQPSENGHFYSPWVIDQILIGGNISGNTVLEDDFSTLDSRKWLLHPGGTKMPVCGSTGDALVFIEKASTRYVVTTDIAVNEDSFLQIDFAASCSVTDSCYAIELEYSVDLGLSWHPLVRDCLPTNVECSRYHLQRILVSDTFNKWTRITLPLPSYTRSQATRFRWHQPAPFDKQQTWAIDNVYIGDGCLDMCSGHGRCVQGSCVCDEQWGGLYCDEPETSLPTQLKDNFNRAPSNQNWLTVSGGKLSTVCGAVASGLALHFSGGCSRLLVTVDLNLTNAEFIQFYFMYGCLITPSNRNQGVLLEYSVNGGITWNLLMEIFYDQYSKPGFVNILLPPDAKEIATRFRWWQPRHDGLDQNDWAIDNVLIS
[1]
  Kd: 120 nM
[2]
  Kd: > 2800 nM
[3]
  Kd: 490 nM
[4]
  Kd: 38 nM
[5]
  Kd: 45 nM
